From patent US20100297703A1

What was measured:
Test in all cases: cell-based or functional assay
[1] = molecular target: 6His-C-YddH protein (Bacillus subtilis) (UniProt P96645)
[2] = molecular target: 6His-C-CwlO protein (Bacillus subtilis) (UniProt P40767)
[3] = molecular target: His-tag-fused C-terminal active domain of CwlE (His-CwlECTD) (Bacillus subtilis) (UniProt O07532)
[4] = molecular target: h-ACwlS protein (Bacillus subtilis) (UniProt O31852)

Chain of 6His-C-CwlO protein (Bacillus subtilis) (P40767 343-473): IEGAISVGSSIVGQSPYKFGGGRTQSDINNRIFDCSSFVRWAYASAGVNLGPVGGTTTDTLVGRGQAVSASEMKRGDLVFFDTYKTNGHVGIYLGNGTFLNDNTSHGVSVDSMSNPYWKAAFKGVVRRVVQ
Chain of His-tag-fused C-terminal active domain of CwlE (His-CwlECTD) (Bacillus subtilis) (O07532 371-488 limits assumed): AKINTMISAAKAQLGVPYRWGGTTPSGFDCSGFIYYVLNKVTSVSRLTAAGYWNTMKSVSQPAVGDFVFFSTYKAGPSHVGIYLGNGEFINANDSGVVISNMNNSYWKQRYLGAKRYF
Chain of 6His-C-YddH protein (Bacillus subtilis) (P96645 206-329): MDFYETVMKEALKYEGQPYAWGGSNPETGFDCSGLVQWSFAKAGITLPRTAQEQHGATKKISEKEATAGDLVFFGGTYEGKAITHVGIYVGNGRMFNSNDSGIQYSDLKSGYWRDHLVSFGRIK

- cell wall lysing activity (decrease in turbidity, OD540), enzyme:His-YoeB 1:2 by mole (% of activity inhibited) [1]: 100
- cell wall lysing activity (decrease in turbidity, OD540), enzyme:His-YoeB 1:2 by mole (% of activity inhibited) [2]: 100
- cell wall lysing activity (decrease in turbidity, OD540), His-CwlECTD:His-YoeB 1:2 by mole (% of activity inhibited) [3]: 100
- cell wall lysing activity (decrease in turbidity, OD540), enzyme:His-YoeB 1:2 by mole (% of activity inhibited) [4]: 100
Substance: His-YoeB (from UniProt O34841 24-181)
